Entries after “also recorded” stand apart in the source; their conditions may differ.

In one test the test system is KCM pancreatic cell line. The experiment in a line: binding to KCM pancreatic cell line. Format: cell-based, mouse. An excerpt: FIG. 3 is a schematic (upper left panel) showing an approach for creating a triple transgenic mouse line that expresses the Cre recombinase throughout the pancreas, a mutated K-ras oncogene polypeptide, and a human MUC1 polypeptide. This mouse develops pancreatic adenocarcinoma, cells of which were used to generate the primary tumor cell line KCM (lower panel). The KCM cell line was used to test the binding of an exemplary antibody of the presently disclosed subject matter (denoted in the Figure as “TAB” and in the instant disclosure as “TAB-004”) either alone or conjugated to CpG oligodeoxynucleotides (CpG ODN).
The TAB-004 antibody alone or conjugated to CpG ODN bound to a tumor cell line (referred to herein as the “KCM” cell line; see FIG. 3) generated from the triple transgenic PDA.MUC1.Tg mice.

The subject of test [1] is human pancreas and breast tumor tissue. The experiment in a line: immunohistochemical staining of human tumor and normal tissue. Format: binding. Particulars: IHC. From the text: FIGS. 1A and 1B are a series of photomicrographs depicting specific binding of an exemplary antibody of the presently disclosed subject matter to human and mouse pancreatic tumors. The dark staining in the panels is indicative of positive binding of the exemplary antibody to cells present in the sample. […] FIG. 1B is a series of photomicrographs depicting the binding of an exemplary antibody of the presently disclosed subject matter to spontaneous tumors present in the pancreas of 6, 16, 26, and 34 week old transgenic mice that carried a human MUC1 transgene and a K-ras^G12D mutation.
FIGS. 2A and 2B are a series of photomicrographs depicting specific binding of an exemplary antibody of the presently disclosed subject matter (i.e., a horse radish peroxidase (HRP)-labeled TAB-004 anti-MUC1 monoclonal antibody) to human breast tumor tissue. […]
Epitope screening determined that the TAB-004 monoclonal antibody (mAb) described herein bound to an epitope present within SEQ ID NO: 3. […]

In a further test the target is T1, shed MUC1 (Homo sapiens, UniProt P15941).
T1 construct: from tissue; host or cells: human plasma, diluted 1:2 and 1:10
The test is described as follows: enzyme immunoassay (EIA) for shed MUC1 in plasma. The protocol: To that end, the ability of TAB-004 to detect levels of shed MUC1 in the plasma of patients was compared to the performances of these antibodies in plasma samples. An enzyme immunoassay (EIA) has been optimized using the TAB-004 antibody to capture and detect levels of shed MUC1 present in circulation. Briefly, a 96-well ELISA plate was coated with 100 μl of TAB-004 antibody at 50 μg/mL in PBS and incubated overnight at 4° C. Following incubation, excess TAB-004 capture antibody was removed from the plate. The plate was blocked with 200 μl of 1% dry milk in PBS to avoid non-specific binding and incubated for 1 hour at 4° C. The plates were washed extensively (3 times) with 250 μl PBS containing 0.05% (v/v) TWEEN®-20 using an ELISA plate washer. A MUC1 standard using a 25-mer polypeptide preparation from MUC1 TR was prepared ranging from 0-2000 U/ml. The test plasma was diluted 1:2, and 1:10 in 0.1% milk in PBS, and 100 μl was added to the appropriate wells in triplicate, and the plates were incubated for 2 hours at 37° C.
Plates were then washed and 100 μl of a polyclonal rabbit anti-MUC1 antibody (Genway) were added at 1:300,000 dilution in 0.1% milk in PBS to each well, and the plate was incubated for 1 hour at 37° C. The polyclonal antibody was washed from the wells and horse radish peroxidase-labeled goat anti-rabbit IgG was added at a 1:1,000 dilution in 0.1% milk in PBS and incubated at 37° C. for 1 hour. After washing the plates, 100 μL of a solution consisting of peroxidase substrate (TMB) was added to the wells, and the plates incubated at room temperature for 30 minutes in the dark. The reaction was stopped by the addition of 25 μl of 4.0 N sulfuric acid, and the optical density read at a wavelength of 450 nm using a SPECTRA-MAX 250 spectrophotometer. Standard curves were generated with regression analyses to determine concentrations of the unknown samples.
Arbitrary units (U)/ml were chosen based on an initial reference standard of MUC1. A linear range was determined to be 50-800 units/ml of MUC1 antigen. […]

Test [2] concerns human breast cancer cell lines. The experiment in a line: flow cytometry of breast cancer cell lines with TAB-004 conjugated to Cy7. Type of test: cell-based. The conditions noted are these: Cy7 conjugate. The procedure: FIG. 13 is a series of plots of flow cytometric analyses of TNBC cell lines stained with a Cy7-conjugated TAB-004 monoclonal antibody (1 μg/sample). Compared to isotype control (solid trace in each panel; red lines in color photo), all cell lines expressed high to moderate levels of tMUC. MDA-MB-231 is mesenchymal in phenotype and loses MUC1 in vitro while Hs578T is a mesenchymal stem-like carcinosarcoma that has low expression of tMUC (depicted with dashed lines in each panel).
A 45-panel human breast cancer cell lines were tested for tMUC expression with TAB-004 conjugated to Cy7 and flow cytometry. […] In particular, apart from those with a mesenchymal phenotype, all cell lines expressed high levels of tMUC.
Background: A flow cytometer gives signals particle by particle.

T1 sequence (P15941 24-1097 limits assumed): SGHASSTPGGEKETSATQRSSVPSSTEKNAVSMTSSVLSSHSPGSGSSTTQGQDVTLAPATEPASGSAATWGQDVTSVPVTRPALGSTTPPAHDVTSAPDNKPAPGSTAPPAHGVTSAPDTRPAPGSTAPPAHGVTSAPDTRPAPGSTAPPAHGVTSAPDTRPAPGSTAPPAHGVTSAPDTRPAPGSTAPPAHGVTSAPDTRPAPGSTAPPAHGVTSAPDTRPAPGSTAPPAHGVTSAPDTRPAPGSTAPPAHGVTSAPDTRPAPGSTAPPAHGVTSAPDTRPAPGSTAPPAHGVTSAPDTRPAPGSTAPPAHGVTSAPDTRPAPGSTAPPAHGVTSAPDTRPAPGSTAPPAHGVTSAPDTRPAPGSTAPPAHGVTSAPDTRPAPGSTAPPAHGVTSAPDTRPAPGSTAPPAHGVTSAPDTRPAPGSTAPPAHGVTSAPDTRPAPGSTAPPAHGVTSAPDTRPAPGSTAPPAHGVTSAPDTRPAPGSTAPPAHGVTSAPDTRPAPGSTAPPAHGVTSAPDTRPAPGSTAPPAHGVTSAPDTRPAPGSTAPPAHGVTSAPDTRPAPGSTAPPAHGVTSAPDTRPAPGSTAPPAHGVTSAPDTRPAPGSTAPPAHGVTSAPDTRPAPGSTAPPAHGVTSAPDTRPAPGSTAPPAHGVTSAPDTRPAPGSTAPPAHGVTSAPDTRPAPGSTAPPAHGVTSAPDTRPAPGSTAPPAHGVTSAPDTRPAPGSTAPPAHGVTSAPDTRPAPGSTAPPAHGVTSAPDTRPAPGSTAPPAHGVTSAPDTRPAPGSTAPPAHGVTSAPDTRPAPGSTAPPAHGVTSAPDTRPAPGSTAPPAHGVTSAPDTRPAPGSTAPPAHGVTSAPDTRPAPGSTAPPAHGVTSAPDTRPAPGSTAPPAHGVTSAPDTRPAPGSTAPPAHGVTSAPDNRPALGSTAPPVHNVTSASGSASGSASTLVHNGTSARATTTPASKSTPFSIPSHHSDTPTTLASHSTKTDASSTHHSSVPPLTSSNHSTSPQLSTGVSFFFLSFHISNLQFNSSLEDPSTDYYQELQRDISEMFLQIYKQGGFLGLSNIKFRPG

B1: TAB-004: mAb of the IgG isotype produced by hybridoma ATCC PTA-11550; binds tumor-specific epitope of human MUC1 (antibody, V domains shown)
VH: EVQLQQSGGERATPGASVKMSCKTSGYTFTNYWMHWVKQRPGQGLEWIGYINPSSGYTQYNQKFKDKATLTADKSSSTAYIQLSSLTSEDSAVYYCSTYYGDYLFPYWGQGTLVTVSA
VL: DVLMTQTPLSLPVSLGDQASISCRSSQDIVYGNGNTYLEWYLQKPGQSPKLLIYKVSNRFSGVPDRFSGSGSGTDFTLKISRVEAEDLGVYYCFQGSHVPYTFGGGTKLEIKR
In the case of B1, in the test with KCM pancreatic cell line, the “binding to KCM cell line” value is listed as “bound to the KCM pancreatic cell line with equal affinity”. Moreover, in test [1], the “staining of normal tissue” value is on record as “did not bind appreciably to normal pancreas or breast tissue; also recorded: did not bind to normal tissue” and the “staining of tumor tissue” value is listed as “reacted strongly with tumor tissue; also recorded: strongly stained”. For the same molecule, in the test with shed MUC1 (36 breast cancer plasma samples for CA15-3), the “false negatives / positivity of cancer patient plasma” value is recorded as “All cancer patient plasma was positive”. Moreover, in the test with shed MUC1 (n=5 per stage), the “stage 2 and stage 3 pancreatic cancer patients above the normal range” value is “all stage 2 and stage 3 patients”. The “false positive results in normal patients” value with shed MUC1 (n=12 normal, cutoff <40 U/ml TAB-004, <31 U/ml CA15-3) is “no false positives”. Besides, the “staining of breast cancer cell line subtypes” value in test [2] (45-panel) is recorded as “stained strongly”. The “staining of MDA-MB-231 cell line” value in test [2] was “stained weakly”.

For the origin of these results see US12605469B2, “Tumor specific antibody conjugates and uses therefor” (The University of North Carolina at Charlotte, priority 2019, dated 2026).
